To fix the notation:
B1: CLPTM1 (parent)
chain: LGCYAVYSLLYLEHKGWYSWVLSM

The text below walks through data of the supplement of paper PMC10567573.
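Note: lentivirally expressed fusions sorted by FACS into six bins by GFP to DsRed ratio, PSI derived from sequencing read proportions per bin multiplied by bin number.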

In this data set the parent is B1. Briefly: protein stability index of a GFP-peptide fusion (GPS, HEK-293T) (PSI 1-6); higher = more stable. The following applies: c terminus: a fixed tail appended.
Consider LGCYAVYSLLYCEHKGWYSWVLSM [L12C], for which the protein stability index came out at 2.68.

With LGCYFVYSLLYLEHKGWYSWVLSM [A5F], the protein stability index worked out at 3.69.

With LGCYHVYSLLYLEHKGWYSWVLSM [A5H], the protein stability index is 2.82.

With LGCYWVYSLLYLEHKGWYSWVLSM [A5W], the protein stability index came to 4.06.

As to LGCYKVYSLLYLEHKGWYSWVLSM [A5K], the protein stability index amounted to 2.91.

Regarding LGCYNVYSLLYLEHKGWYSWVLSM [A5N], the protein stability index was 4.03.

For the variant LGCYMVYSLLYLEHKGWYSWVLSM [A5M], the protein stability index worked out at 2.

In the case of LGCYSVYSLLYLEHKGWYSWVLSM [A5S], the protein stability index came to 3.5.

Consider LGCYDVYSLLYLEHKGWYSWVLSM [A5D], for which the protein stability index came out at 2.12.

Turning to LGCYRVYSLLYLEHKGWYSWVLSM [A5R], the protein stability index is 2.43.

In the case of LGCYEVYSLLYLEHKGWYSWVLSM [A5E], the protein stability index is 3.12.

Take LGCYIVYSLLYLEHKGWYSWVLSM [A5I]: the protein stability index amounted to 3.28.

In the case of LGCYCVYSLLYLEHKGWYSWVLSM [A5C], the protein stability index was 3.34.

Turning to LGCYTVYSLLYLEHKGWYSWVLSM [A5T], the protein stability index was found to be 2.57.

As to LGCYLVYSLLYLEHKGWYSWVLSM [A5L], the protein stability index was determined as 4.56.

LGCYAVYSVLYLEHKGWYSWVLSM [L9V]: the protein stability index was determined as 1.94.

Take LGCYAVYSHLYLEHKGWYSWVLSM [L9H]: the protein stability index stood at 1.71.

For LGCYAVYSNLYLEHKGWYSWVLSM [L9N], the protein stability index stood at 3.39.

For LGCYAVYSPLYLEHKGWYSWVLSM [L9P], the protein stability index stood at 4.54.

For LGCYAVYSSLYLEHKGWYSWVLSM [L9S], the protein stability index is 2.77.

Consider LGCYAVYSQLYLEHKGWYSWVLSM [L9Q], for which the protein stability index came out at 2.67.

LGCYAVYSMLYLEHKGWYSWVLSM [L9M]: the protein stability index stood at 2.92.

As for LGCYAVYSTLYLEHKGWYSWVLSM [L9T], the protein stability index is 1.75.

For LGCYAVYSILYLEHKGWYSWVLSM [L9I], the protein stability index stood at 2.15.

In the case of LGCYAVYSWLYLEHKGWYSWVLSM [L9W], the protein stability index is 2.7.

As for LGCYAVYSELYLEHKGWYSWVLSM [L9E], the protein stability index came out at 2.13.

For LGCYAVYSGLYLEHKGWYSWVLSM [L9G], the protein stability index is 1.77.

On to LGCYAVYSCLYLEHKGWYSWVLSM [L9C], for which the protein stability index amounted to 2.03.

With LGCYAVYSYLYLEHKGWYSWVLSM [L9Y], the protein stability index came out at 2.36.

As to LGCYAVYSRLYLEHKGWYSWVLSM [L9R], the protein stability index is 2.18.

As to LGCYAVYSFLYLEHKGWYSWVLSM [L9F], the protein stability index was 4.07.

In the case of LGCYAVYSDLYLEHKGWYSWVLSM [L9D], the protein stability index turned out to be 3.48.

Regarding LGCYAVYSKLYLEHKGWYSWVLSM [L9K], the protein stability index was determined as 2.65.

As for LGCYAVYWLLYLEHKGWYSWVLSM [S8W], the protein stability index was found to be 1.43.

As for LGCYAVYHLLYLEHKGWYSWVLSM [S8H], the protein stability index is 2.55.

For the variant LGCYAVYTLLYLEHKGWYSWVLSM [S8T], the protein stability index came out at 2.09.

Regarding LGCYAVYNLLYLEHKGWYSWVLSM [S8N], the protein stability index is 4.1.

In the case of LGCYAVYELLYLEHKGWYSWVLSM [S8E], the protein stability index worked out at 1.27.

On to LGCYAVYCLLYLEHKGWYSWVLSM [S8C], for which the protein stability index worked out at 2.96.

As for LGCYAVYPLLYLEHKGWYSWVLSM [S8P], the protein stability index turned out to be 3.57.

Consider LGCYAVYGLLYLEHKGWYSWVLSM [S8G], for which the protein stability index is 4.38.

LGCYAVYILLYLEHKGWYSWVLSM [S8I]: the protein stability index came out at 3.15.

As for LGCYAVYVLLYLEHKGWYSWVLSM [S8V], the protein stability index is 1.96.

As to LGCYAVYALLYLEHKGWYSWVLSM [S8A], the protein stability index worked out at 2.25.

Turning to LGCYAVYKLLYLEHKGWYSWVLSM [S8K], the protein stability index turned out to be 3.64.

In the case of LGCYAVYSLLYLENKGWYSWVLSM [H14N], the protein stability index amounted to 2.58.

With LGCYAVYSLLYLETKGWYSWVLSM [H14T], the protein stability index was 3.37.

As for LGCYAVYSLLYLEVKGWYSWVLSM [H14V], the protein stability index stood at 2.52.

Take LGCYAVYSLLYLEGKGWYSWVLSM [H14G]: the protein stability index is 2.4.

As to LGCYAVYSLLYLEIKGWYSWVLSM [H14I], the protein stability index stood at 2.44.

LGCYAVYSLLYLERKGWYSWVLSM [H14R]: the protein stability index came out at 2.22.

LGCYAVYSLLYLEFKGWYSWVLSM [H14F]: the protein stability index turned out to be 3.12.

LGCYAVYSLLYLEPKGWYSWVLSM [H14P]: the protein stability index is 2.6.

In the case of LGCYAVYSLLYLEWKGWYSWVLSM [H14W], the protein stability index stood at 3.16.

Regarding LGCYAVYSLLYLEDKGWYSWVLSM [H14D], the protein stability index came out at 2.41.

LGCYAVYSLLYLEAKGWYSWVLSM [H14A]: the protein stability index stood at 3.68.

For the variant LGCYAVYSLLYLEMKGWYSWVLSM [H14M], the protein stability index is 2.53.

On to LGCYAVYSLLYLEQKGWYSWVLSM [H14Q], for which the protein stability index was determined as 3.42.

As to LGCYAVYSLLYLEYKGWYSWVLSM [H14Y], the protein stability index is 3.4.

For LGCYAVYSLLYLESKGWYSWVLSM [H14S], the protein stability index stood at 2.43.

Regarding LGCYAVYSLLYLECKGWYSWVLSM [H14C], the protein stability index worked out at 2.45.

For the variant LGCYAVYSLLYLELKGWYSWVLSM [H14L], the protein stability index was 2.4.

In the case of LGCYAVYSLLGLEHKGWYSWVLSM [Y11G], the protein stability index is 4.08.

With LGCYAVYSLLDLEHKGWYSWVLSM [Y11D], the protein stability index was determined as 2.36.

Consider LGCYAVYSLLHLEHKGWYSWVLSM [Y11H], for which the protein stability index came to 2.09.

For LGCYAVYSLLSLEHKGWYSWVLSM [Y11S], the protein stability index came out at 1.87.

LGCYAVYSLLMLEHKGWYSWVLSM [Y11M]: the protein stability index came out at 2.05.

Consider LGCYAVYSLLTLEHKGWYSWVLSM [Y11T], for which the protein stability index worked out at 2.69.

For LGCYAVYSLLELEHKGWYSWVLSM [Y11E], the protein stability index came to 3.13.

For LGCYAVYSLLNLEHKGWYSWVLSM [Y11N], the protein stability index came to 2.

In the case of LGCYAVYSLLWLEHKGWYSWVLSM [Y11W], the protein stability index turned out to be 2.68.

Consider LGCYAVYSLLQLEHKGWYSWVLSM [Y11Q], for which the protein stability index was determined as 3.22.

Turning to LGCYAVYSLLKLEHKGWYSWVLSM [Y11K], the protein stability index is 2.63.

With LGCYAVYSLLILEHKGWYSWVLSM [Y11I], the protein stability index amounted to 3.

For the variant LGCYAVYSLLFLEHKGWYSWVLSM [Y11F], the protein stability index was determined as 3.26.

Consider LGCYAVYSLLPLEHKGWYSWVLSM [Y11P], for which the protein stability index amounted to 2.2.

Consider LGCYAVYSLLYLEHLGWYSWVLSM [K15L], for which the protein stability index is 3.23.

LGCYAVYSLLYLEHAGWYSWVLSM [K15A]: the protein stability index came to 1.32.

Turning to LGCYAVYSLLYLEHSGWYSWVLSM [K15S], the protein stability index is 2.73.

For LGCYAVYSLLYLEHHGWYSWVLSM [K15H], the protein stability index worked out at 3.75.

As for LGCYAVYSLLYLEHYGWYSWVLSM [K15Y], the protein stability index is 2.57.

As to LGCYAVYSLLYLEHQGWYSWVLSM [K15Q], the protein stability index came out at 1.25.

On to LGCYAVYSLLYLEHVGWYSWVLSM [K15V], for which the protein stability index stood at 2.65.

Turning to LGCYAVYSLLYLEHTGWYSWVLSM [K15T], the protein stability index was found to be 4.26.

For the variant LGCYAVYSLLYLEHIGWYSWVLSM [K15I], the protein stability index was found to be 2.89.

LGCYAVYSLLYLEHNGWYSWVLSM [K15N]: the protein stability index was found to be 3.11.

As for LGCYAVYSLLYLEHPGWYSWVLSM [K15P], the protein stability index was 3.92.

LGCYAVYSLLYLEHGGWYSWVLSM [K15G]: the protein stability index is 1.81.

Turning to LGCYAVYSLLYLEHWGWYSWVLSM [K15W], the protein stability index worked out at 2.46.

For the variant LGCYAVYSLLYLEHCGWYSWVLSM [K15C], the protein stability index turned out to be 2.9.

On to LGCYAVYSLLYLEHMGWYSWVLSM [K15M], for which the protein stability index was 3.9.

For LGCYAVYSLLYLEHFGWYSWVLSM [K15F], the protein stability index came to 2.41.

Take LGCYAVYSLLYLEHKDWYSWVLSM [G16D]: the protein stability index came out at 2.47.

As to LGCYAVYSLLYLEHKAWYSWVLSM [G16A], the protein stability index is 4.05.
